Source: publication PMC7861563, “FOXP1 Interacts with MyoD to Repress its Transcription and Myoblast Conversion” (Journal of cellular signaling, 2021)

T1: Myoblast Determination protein 1 (MYOD1/MyoD), endogenous in C2C12 (mouse (endogenous in C2C12), UniProt P10085 1-318)
T1 sequence (looked up): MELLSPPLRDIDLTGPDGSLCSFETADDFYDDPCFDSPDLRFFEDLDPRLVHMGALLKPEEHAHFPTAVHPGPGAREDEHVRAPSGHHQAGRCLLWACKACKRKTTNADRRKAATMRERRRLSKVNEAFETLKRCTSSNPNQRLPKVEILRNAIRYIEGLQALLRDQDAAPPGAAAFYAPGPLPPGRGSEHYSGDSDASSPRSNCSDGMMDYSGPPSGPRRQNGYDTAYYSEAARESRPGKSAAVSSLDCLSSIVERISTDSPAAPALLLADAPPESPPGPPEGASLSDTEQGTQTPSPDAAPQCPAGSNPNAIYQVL


What was measured:
[1] = biological target: MyoD, bacterially expressed (UniProt P10085)
[2] = biological target: T1, Myoblast Determination protein 1 …; assay: cell-based or functional assay

Row | EMSA titration: amount of GST-Fkh for full inhibition of DNA binding of MyoD homodimers (200ng/reaction) [1] | EMSA titration: amount of GST-Fkh for full inhibition of DNA binding of MyoD-E47N (MyoD 200ng, E47N 50ng/reaction) [1] | MCK enhancer E box firefly luciferase reporter in 10T1/2 cells after 5-azacytidine, FOXP1 expression plasmid in varying amounts (highest input ~3-fold molar excess over MyoD) [2] | luciferase reporter driven by 2 E-box consensus MyoD binding sites (2R-luc) in differentiating C2C12, normalized to β-galactosidase [2] | Molecule
1 | 100 ng | 400 ng |  |  | GST-FOXP Forkhead domain (GST-Fkh) (domain or fragment)
2 |  |  | ~20 fold | ~12 fold | Forkhead Box P1 (FOXP1), endogenous in C2C12 (natural protein, mouse (endogenous in C2C12), UniProt P58462 1-705, looked up) MMQESGSETKSNGSAIQNGSSGGNHLLECGALRDTRSNGEAPAVDLGAADLAHVQQQQQQALQVARQLLLQQQQQQQQQQQQQQQQQQQQQQQQQQQQQQQQQQQQQVSGLKSPKRNDKQPALQVPVSVAMMTPQVITPQQMQQILQQQVLSPQQLQVLLQQQQALMLQQQLQEFYKKQQEQLQLQLLQQQHAGKQPKEQQVATQQLAFQQQLLQMQQLQQQHLLSLQRQGLLTIQPGQPALPLQPLAQGMIPTELQQLWKEVTSAHTAEETTSSNHSSLDLTSTCVSSSAPSKSSLIMNPHASTNGQLSVHTPKRESLSHEEHPHSHPLYGHGVCKWPGCEAVCDDFPAFLKHLNSEHALDDRSTAQCRVQMQVVQQLELQLAKDKERLQAMMTHLHVKSTEPKAAPQPLNLVSSVTLSKSASEASPQSLPHTPTTPTAPLTPVTQGPSVITTTSMHTVGPIRRRYSDKYNVPISSADIAQNQEFYKNAEVRPPFTYASLIRQAILESPEKQLTLNEIYNWFTRMFAYFRRNAATWKNAVRHNLSLHKCFVRVENVKGAVWTVDEVEFQKRRPQKISGNPSLIKNMQSSHAYCTPLNAALQASMAENSIPLYTTASMGNPTLGSLASAIREELNGAMEHTNSNESDSSPGRSPMQAVHPIHVKEEPLDPEEAEGPLSLVTTANHSPDFDHDRDYEDEPVNEDME
